Experimental data taken from the Human Domainome abundance scans (Beltran et al. 2025).

B1: Retinoic acid receptor beta, residues 85 to 161; numbered along this chain, P10826 (parent)
chain: YKPCFVCQDKSSGYHYGVSACEGCKGFFRRSIQKNMIYTCHRDKNCVINKVTRNRCQYCRLQKCFEVGMSKESVRND
B2: POU domain, class 4, transcription factor 2, residues 256 to 327; numbered along this chain, Q12837 (parent)
chain: RDLEAFAERFKQRRIKLGVTQADVGSALANLKIPGVGSLSQSTICRFESLTLSHNNMIALKPILQAWLEEAE

Variants of: B1
Experiment: abundance fitness (aPCA) (normalised: wild type 0, dead -1); higher = more abundant; growth selection in yeast, the domain comes from the species named
Details: Homo sapiens

Abundance fitness of substitutions, site by site:
Y1: V 0.158; I -0.01; M 0.067; K 0.193; H 0.055; G -0.097; Q -0.132; E -0.109; W -0.221; T -0.109; N 0.255; L -0.086; R -0.239; C -0.008

Variants of: B2
Experiment: as above
Details: Homo sapiens

Abundance fitness: each site, then its substitutions
W67: R -0.755; Q 0.108
E70: T -0.231; K 0.076; C -0.102; P -0.826; S -0.11; F -0.543; V -0.186; D -0.212; G -0.313; M -0.332; L -0.454; I -0.156; H -0.666; W -0.45; A -0.058; R -0.075; Y -0.028
I63: E -0.018; R -0.314; Y -0.333; K -0.495; Q -0.489; H 0.07; D -0.438; L -0.217; W -0.443; V -0.006; N -0.628; M -0.382; S -0.224; F 0.164; G -0.414; A -0.03; P -0.329; C -0.231; T -0.098
K61: Y -0.237
P62: I -0.638; S -0.465; M -0.811; V -0.726; D -0.18; F -0.761; K -0.698; N -0.44; T -0.533; A -0.668; G -0.628; Y -0.827; H -0.23; E -0.457; R -0.771; L -0.982; Q -0.623
L68: T -0.733; N -0.232; M -0.461; G -0.777; P -0.589; Y -0.372; D -0.617; W -0.663; V -0.384; Q -0.107; C -0.585; A -0.483; R -0.847; S -0.559
A66: V -0.153; T -0.096; W -0.138; M -0.246; P -0.524; D 0.098; G -0.08; R -0.008; Y -0.298; E -0.007; C -0.378; K 0.004; H -0.153; I -0.187
E72: D -0.425; V -0.419; T -0.498; A -0.617; H -0.38; Y -0.206
Q65: F -0.369; M -0.235; K -0.074; W -0.504; G -0.106; V -0.324; I -0.502; E 0.058; A -0.084; D -0.186; N -0.309; S -0.028; T -0.19; R -0.37; C -0.132; P -0.528
L64: P -0.98; A -0.902; K -0.884; I -0.394; D -0.6; Q -0.75; H -0.769; G -0.787; S -0.669; T -0.769; N -0.823; Y -0.416; M -0.371; R -1.08; W -1.11; V -0.295
E69: T -0.133; I -0.248; D -0.349; G -0.18; R -0.211; V -0.178; Q -0.001; A -0.119; L -0.099; F -0.251; S -0.097; N -0.219; C -0.062; H -0.481; Y -0.367; K -0.458
A71: K -0.125; L -0.433; F -0.02; E -0.247; M -0.4; I -0.11; P -0.671; W -0.057; N -0.225; S -0.183; G -0.284; V -0.296; H -0.223; D -0.614; Q -0.188
